Measured values as given in paper PMC11574045, “A cofactor-induced repressive type of transcription factor condensation can be induced by synthetic peptides to suppress tumorigenesis” (The EMBO Journal, 2024).

Test system: HEK293FT cells transfected with TF library
Test: Screening of TF condensates based on fluorescent puncta
Format: cell-based
Settings: Figure 1B numerical data; TF library screen, one value per transcriptional factor
Description: TF plasmids were automatically added to black-walled 384-well plates at 80 ng per well to reach a final concentration of 1.6 μg/ml. Polyethylenimine (PEI, Sigma) was then added to the plasmid-loaded plates at 240 ng per well (4.8 μg/ml). Subsequently, HEK293FT cells were seeded into the plate at 2000 cells per well. After 60 h, cells were cultured in medium with or without glucose for 12 h, and then fixed with 4% paraformaldehyde (PFA) at room temperature for 30 min. After three washes with PBS, fixed cells were permeabilized with 0.05% Triton X-100 for 15 min. Thereafter, cells were blocked with 5% BSA for 1 h, and then incubated overnight with anti-Flag (Sigma F3165, 1:200) and anti-GAL4 (Abbkine ABP57232, 1:200) primary antibodies at 4 °C. The cells were then gently washed with PBS, followed by being incubated with Alexa Fluor Plus 488 goat anti-mouse IgG secondary antibody (Thermo A32723, 1:400) or Alexa Fluor Plus 488 goat anti-rabbit IgG secondary antibody (Thermo A32731, 1:400) for 1 h. The plates were kept at 4 °C in the dark before being analyzed using an Opera System (Perkin Elmer). Fifty random fields per well were scanned and analyzed using the Columbus Plus Image Data Storage and Analysis System (Perkin Elmer).

Row | Molecule | Z score of condensed fraction
1 | ERF (protein, UniProt P50548 1-548, looked up) ETS domain-containing …: MKTPADTGFAFPDWAYKPESSPGSRQIQLWHFILELLRKEEYQGVIAWQGDYGEFVIKDPDEVARLWGVRKCKPQMNYDKLSRALRYYYNKRILHKTKGKRFTYKFNFNKLVLVNYPFIDVGLAGGAVPQSAPPVPSGGSHFRFPPSTPSEVLSPTEDPRSPPACSSSSSSLFSAVVARRLGRGSVSDCSDGTSELEEPLGEDPRARPPGPPDLGAFRGPPLARLPHDPGVFRVYPRPRGGPEPLSPFPVSPLAGPGSLLPPQLSPALPMTPTHLAYTPSPTLSPMYPSGGGGPSGSGGGSHFSFSPEDMKRYLQAHTQSVYNYHLSPRAFLHYPGLVVPQPQRPDKCPLPPMAPETPPVPSSASSSSSSSSSPFKFKLQPPPLGRRQRAAGEKAVAGADKSGGSAGGLAEGAGALAPPPPPPQIKVEPISEGESEEVEVTDISDEDEEDGEVFKTPRAPPAPPKPEPGEAPGASQCMPLKLRFKRRWSEDCRLEGGGGPAGGFEDEGEDKKVRGEGPGEAGGPLTPRRVSSDLQHATAQLSLEHRDS | -0.2253
2 | ERCC3 (protein, UniProt P19447 1-782, looked up) General transcription and DNA …: MGKRDRADRDKKKSRKRHYEDEEDDEEDAPGNDPQEAVPSAAGKQVDESGTKVDEYGAKDYRLQMPLKDDHTSRPLWVAPDGHIFLEAFSPVYKYAQDFLVAIAEPVCRPTHVHEYKLTAYSLYAAVSVGLQTSDITEYLRKLSKTGVPDGIMQFIKLCTVSYGKVKLVLKHNRYFVESCHPDVIQHLLQDPVIRECRLRNSEGEATELITETFTSKSAISKTAESSGGPSTSRVTDPQGKSDIPMDLFDFYEQMDKDEEEEEETQTVSFEVKQEMIEELQKRCIHLEYPLLAEYDFRNDSVNPDINIDLKPTAVLRPYQEKSLRKMFGNGRARSGVIVLPCGAGKSLVGVTAACTVRKRCLVLGNSAVSVEQWKAQFKMWSTIDDSQICRFTSDAKDKPIGCSVAISTYSMLGHTTKRSWEAERVMEWLKTQEWGLMILDEVHTIPAKMFRRVLTIVQAHCKLGLTATLVREDDKIVDLNFLIGPKLYEANWMELQNNGYIAKVQCAEVWCPMSPEFYREYVAIKTKKRILLYTMNPNKFRACQFLIKFHERRNDKIIVFADNVFALKEYAIRLNKPYIYGPTSQGERMQILQNFKHNPKINTIFISKVGDTSFDLPEANVLIQISSHGGSRRQEAQRLGRVLRAKKGMVAEEYNAFFYSLVSQDTQEMAYSTKRQRFLVDQGYSFKVITKLAGMEEEDLAFSTKEEQQQLLQKVLAATDLDAEEEVVAGEFGSRSSQASRRFGTMSSMSGADDTVYMEYHSSRSKAPSKHVHPLFKRFRK | -0.7686
3 | EZH1 (protein, UniProt Q92800 1-747, looked up) Histone-lysine …: MEIPNPPTSKCITYWKRKVKSEYMRLRQLKRLQANMGAKALYVANFAKVQEKTQILNEEWKKLRVQPVQSMKPVSGHPFLKKCTIESIFPGFASQHMLMRSLNTVALVPIMYSWSPLQQNFMVEDETVLCNIPYMGDEVKEEDETFIEELINNYDGKVHGEEEMIPGSVLISDAVFLELVDALNQYSDEEEEGHNDTSDGKQDDSKEDLPVTRKRKRHAIEGNKKSSKKQFPNDMIFSAIASMFPENGVPDDMKERYRELTEMSDPNALPPQCTPNIDGPNAKSVQREQSLHSFHTLFCRRCFKYDCFLHPFHATPNVYKRKNKEIKIEPEPCGTDCFLLLEGAKEYAMLHNPRSKCSGRRRRRHHIVSASCSNASASAVAETKEGDSDRDTGNDWASSSSEANSRCQTPTKQKASPAPPQLCVVEAPSEPVEWTGAEESLFRVFHGTYFNNFCSIARLLGTKTCKQVFQFAVKESLILKLPTDELMNPSQKKKRKHRLWAAHCRKIQLKKDNSSTQVYNYQPCDHPDRPCDSTCPCIMTQNFCEKFCQCNPDCQNRFPGCRCKTQCNTKQCPCYLAVRECDPDLCLTCGASEHWDCKVVSCKNCSIQRGLKKHLLLAPSDVAGWGTFIKESVQKNEFISEYCGELISQDEADRRGKVYDKYMSSFLFNLNNDFVVDATRKGNKIRFANHSVNPNCYAKVVMVNGDHRIGIFAKRAIQAGEELFFDYRYSQADALKYVGIERETDVL | -2.133
4 | ETV2 (protein, UniProt P41163 1-335, looked up) ETS translocation variant 2: MDLWNWDEASLQEVPPGDKLTGLGAEFGFYFPEVALQEDTPITPMNVEGCWKGFPELDWNPALPHEDVPFQAEPVAHPLPWSRDWTDLGCNTSDPWSCASQTPGPAPPGTSPSPFVGFEGATGQNPATSAGGVPSWSHPPAAWSTTSWDCSVGPSGATYWDNGLGGEAHEDYKMSWGGSAGSDYTTTWNTGLQDCSIPFEGHQSPAFTTPSKSNKQSDRATLTRYSKTNHRGPIQLWQFLLELLHDGARSSCIRWTGNSREFQLCDPKEVARLWGERKRKPGMNYEKLSRGLRYYYRRDIVLKSGGRKYTYRFGGRVPVLAYQDDMGHLPGAEGQ | 0.6041
5 | AFF3 (protein, UniProt P51826 1-1226, looked up) AF4/FMR2 family member 3: MDSFDLALLQEWDLESLCVYEPDRNALRRKERERRNQETQQDDGTFNSSYSLFSEPYKTNKGDELSNRIQNTLGNYDEMKDFLTDRSNQSHLVGVPKPGVPQTPVNKIDEHFVADSRAQNQPSSICSTTTSTPAAVPVQQSKRGTMGWQKAGHPPSDGQQRATQQGSLRTLLGDGVGRQQPRAKQVCNVEVGLQTQERPPAMAAKHSSSGHCVQNFPPSLASKPSLVQQKPTAYVRPMDGQDQAPDESPKLKSSSETSVHCTSYRGVPASKPEPARAKAKLSKFSIPKQGEESRSGETNSCVEEIIREMTWLPPLSAIQAPGKVEPTKFPFPNKDSQLVSSGHNNPKKGDAEPESPDNGTSNTSMLEDDLKLSSDEEENEQQAAQRTALRALSDSAVVQQPNCRTSVPSSKGSSSSSSSGSSSSSSDSESSSGSDSETESSSSESEGSKPPHFSSPEAEPASSNKWQLDKWLNKVNPHKPPILIQNESHGSESNQYYNPVKEDVQDCGKVPDVCQPSLREKEIKSTCKEEQRPRTANKAPGSKGVKQKSPPAAVAVAVSAAAPPPAVPCAPAENAPAPARRSAGKKPTRRTERTSAGDGANCHRPEEPAAADALGTSVVVPPEPTKTRPCGNNRASHRKELRSSVTCEKRRTRGLSRIVPKSKEFIETESSSSSSSSDSDLESEQEEYPLSKAQTVAASASSGNDQRLKEAAANGGSGPRAPVGSINARTTSDIAKELEEQFYTLVPFGRNELLSPLKDSDEIRSLWVKIDLTLLSRIPEHLPQEPGVLSAPATKDSESAPPSHTSDTPAEKALPKSKRKRKCDNEDDYREIKKSQGEKDSSSRLATSTSNTLSANHCNMNINSVAIPINKNEKMLRSPISPLSDASKHKYTSEDLTSSSRPNGNSLFTSASSSKKPKADSQLQPHGGDLTKAAHNNSENIPLHKSRPQTKPWSPGSNGHRDCKRQKLVFDDMPRSADYFMQEAKRMKHKADAMVEKFGKALNYAEAALSFIECGNAMEQGPMESKSPYTMYSETVELIRYAMRLKTHSGPNATPEDKQLAALCYRCLALLYWRMFRLKRDHAVKYSKALIDYFKNSSKAAQAPSPWGASGKSTGTPSPMSPNPSPASSVGSQGSLSNASALSPSTIVSIPQRIHQMAANHVSITNSILHSYDYWEMADNLAKENREFFNDLDLLMGPVTLHSSMEHLVQYSQQGLHWLRNSAHLS | -0.8104
6 | ETV7 (protein, UniProt Q9Y603 1-341, looked up) Transcription factor ETV7: MQEGELAISPISPVAAMPPLGTHVQARCEAQINLLGEGGICKLPGRLRIQPALWSREDVLHWLRWAEQEYSLPCTAEHGFEMNGRALCILTKDDFRHRAPSSGDVLYELLQYIKTQRRALVCGPFFGGIFRLKTPTQHSPVPPEEVTGPSQMDTRRGHLLQPPDPGLTSNFGHLDDPGLARWTPGKEESLNLCHCAELGCRTQGVCSFPAMPQAPIDGRIADCRLLWDYVYQLLLDTRYEPYIKWEDKDAKIFRVVDPNGLARLWGNHKNRVNMTYEKMSRALRHYYKLNIIKKEPGQKLLFRFLKTPGKMVQDKHSHLEPLESQEQDRIEFKDKRPEISP | -0.026
7 | ETV1 (protein, UniProt P50549 1-477, looked up) ETS translocation variant 1: MDGFYDQQVPYMVTNSQRGRNCNEKPTNVRKRKFINRDLAHDSEELFQDLSQLQETWLAEAQVPDNDEQFVPDYQAESLAFHGLPLKIKKEPHSPCSEISSACSQEQPFKFSYGEKCLYNVSAYDQKPQVGMRPSNPPTPSSTPVSPLHHASPNSTHTPKPDRAFPAHLPPSQSIPDSSYPMDHRFRRQLSEPCNSFPPLPTMPREGRPMYQRQMSEPNIPFPPQGFKQEYHDPVYEHNTMVGSAASQSFPPPLMIKQEPRDFAYDSEVPSCHSIYMRQEGFLAHPSRTEGCMFEKGPRQFYDDTCVVPEKFDGDIKQEPGMYREGPTYQRRGSLQLWQFLVALLDDPSNSHFIAWTGRGMEFKLIEPEEVARRWGIQKNRPAMNYDKLSRSLRYYYEKGIMQKVAGERYVYKFVCDPEALFSMAFPDNQRPLLKTDMERHINEEDTVPLSHFDESMAYMPEGGCCNPHPYNEGYVY | -0.2404
8 | FERD3L (protein, UniProt Q96RJ6 1-166, looked up) Fer3-like protein: MAAYPESCVDTTVLDFVADLSLASPRRPLLCDFAPGVSLGDPALALREGRPRRMARFEEGDPEEEECEVDQGDGEEEEEEERGRGVSLLGRPKRKRVITYAQRQAANIRERKRMFNLNEAFDQLRRKVPTFAYEKRLSRIETLRLAIVYISFMTELLESCEKKESG | 0.6489
9 | ESRRA (protein, UniProt P11474 1-423, looked up) Steroid hormone receptor ERR1: MSSQVVGIEPLYIKAEPASPDSPKGSSETETEPPVALAPGPAPTRCLPGHKEEEDGEGAGPGEQGGGKLVLSSLPKRLCLVCGDVASGYHYGVASCEACKAFFKRTIQGSIEYSCPASNECEITKRRRKACQACRFTKCLRVGMLKEGVRLDRVRGGRQKYKRRPEVDPLPFPGPFPAGPLAVAGGPRKTAAPVNALVSHLLVVEPEKLYAMPDPAGPDGHLPAVATLCDLFDREIVVTISWAKSIPGFSSLSLSDQMSVLQSVWMEVLVLGVAQRSLPLQDELAFAEDLVLDEEGARAAGLGELGAALLQLVRRLQALRLEREEYVLLKALALANSDSVHIEDAEAVEQLREALHEALLEYEAGRAGPGGGAERRRAGRLLLTLPLLRQTAGKVLAHFYGVKLEGKVPMHKLFLEMLEAMMD | 0.7125
